These results are taken from patent US20150087584A1.

The experiment addresses Helicoverpa armigera gut proteases (HGP) (Helicoverpa armigera). The experiment is described as follows: cell-based or functional assay.

As to NRLCTNCCAGRKGCNYYSADGTFICEGESDPNNPKACPRNCDPNIAYSLC [inhibitory repeat domain IRD-12 of Capsicum annuum Pin-II proteinase inhibitors (CanPIs)], the HGPI activity of the IRD alone at its IC50 concentration was found to be 51%; the inhibition of HGP activity (BApNA and Azocasein substrates) lay within 80 to 85%.
Molecule QPICTNSSAGLKGCNYYNADGTFICEGESDPNHPKACPKNCDPNIAYSLC [inhibitory repeat domain IRD-9 of Capsicum annuum Pin-II proteinase inhibitors (CanPIs)] showed an inhibition of HGP activity (BApNA and Azocasein substrates) of 80 to 85%.
